Measurements taken from the FLAb antibody collection.

B1: unnamed (protein)
chain 1: EVQLVESGGGLVQPGGSLRLSCAASGFTFNTYAMYWIRQAPGKGLEWVARIRSKSNNYAIYYADSVKDRFTISRDDSKNSLYLQMNSLKTEDTAVYYCARPYSDSFAYWGQGTLVTVSS
chain 2: DVVMTQSPLSLPVTPGEPASISCRSSQSLVHSTGNTYLHWYLQKPGQSPQLLIYKVSNRFSGVPDRFSGSGSGTDFTLKISRVEAEDVGVYYCSQSTHVPFTFGGGTKVEIK
B2: unnamed (protein)
chain 1: QLQLQESGPGLLKPSETLSLTCTVSGGSISSPGYYGGWIRQPPGKGLEWIGSIYKSGSTYHNPSLKSRVTISVDTSKNQFSLKLSSVTAADTAVYYCTRPVVRYFGWFDPWGQGTLVTVSS
chain 2: AIQLTQSPSSLSASVGDRVTITCRASQGISSALAWYQQKPGKAPKLLIYDASNLESGVPSRFSGSGSGTDFTLTISSLQPEDFATYYCQQFNSYPTFGQGTKVEIK
B3: unnamed (protein)
chain 1: EVQLQQSGAELVKPGASVKLSCTASGFNIKDTYVHWVKQRPEQGLEWIGRIDPANGYTKYDPKFQGKATITADTSSNTAYLQLSSLTSEDTAVYYCVRPLYDYYAMDYWGQGTSVTVSS
chain 2: DILMTQSPSSMSVSLGDTVSITCHASQGISSNIGWLQQKPGKSFMGLIYYGTNLVDGVPSRFSGSGSGADYSLTISSLDSEDFADYYCVQYAQLPYTFGGGTKLEIK
B4: unnamed (protein)
chain 1: EVQLVESGGGLVQPGGSLRLSCAASGFTFSDYNMAWVRQAPGKGLEWVATITYEGRNTYYRDSVKGRFTISRDNAKNSLYLQMNSLRAEDTAVYYCASPPQYYEGSIYRLWFAHWGQGTLVTVSS
chain 2: AIQLTQSPSSLSASVGDRVTITCRADESVRTLMHWYQQKPGKAPKLLIYLVSNSEIGVPDRFSGSGSGTDFRLTISSLQPEDFATYYCQQTWSDPWTFGQGTKVEIK
B5: unnamed (protein)
chain 1: EVQLVESGGGLVQPGGSLRLSCAASGYTFTNYGMNWVRQAPGKGLEWVGWINTYTGEPTYAADFKRRFTFSLDTSKSTAYLQMNSLRAEDTAVYYCAKYPHYYGSSHWYFDVWGQGTLVTVSS
chain 2: DIQMTQSPSSLSASVGDRVTITCSASQDISNYLNWYQQKPGKAPKVLIYFTSSLHSGVPSRFSGSGSGTDFTLTISSLQPEDFATYYCQQYSTVPWTFGQGTKVEIK
B6: unnamed (protein)
chain 1: QVQLVQSGAEVKKPGASVKVSCKASGYTFTSYYMHWVRQAPGQGLEWMGEISPFGGRTNYNEKFKSRVTMTRDTSTSTVYMELSSLRSEDTAVYYCARERPLYASDLWGQGTTVTVSS
chain 2: DIQMTQSPSSLSASVGDRVTITCRASQGISSALAWYQQKPGKAPKLLIYSASYRYTGVPSRFSGSGSGTDFTFTISSLQPEDIATYYCQQRYSLWRTFGQGTKLEIK
B7: unnamed (protein)
chain 1: QIQLQQSGPEVVKPGASVKISCKASGYTFTDYYITWVKQKPGQGLEWIGWIYPGSGNTKYNEKFKGKATLTVDTSSSTAFMQLSSLTSEDTAVYFCANYGNYWFAYWGQGTQVTVSA
chain 2: DIVLTQSPASLAVSLGQRATISCKASQSVDFDGDSYMNWYQQKPGQPPKVLIYAASNLESGIPARFSGSGSGTDFTLNIHPVEEEDAATYYCQQSNEDPWTFGGGTKLEIK
B8: unnamed (protein)
chain 1: QVQLQQSGAELVRPGSSVKISCKASGYAFSSYWMNWVKQRPGQGLEWIGQIWPGDGDTNYNGKFKGKATLTADESSSTAYMQLSSLASEDSAVYFCARRETTTVGRYYYAMDYWGQGTTVTVSS
chain 2: DIQLTQSPASLAVSLGQRATISCKASQSVDYDGDSYLNWYQQIPGQPPKLLIYDASNLVSGIPPRFSGSGSGTDFTLNIHPVEKVDAATYHCQQSTEDPWTFGGGTKLEIK
B9: unnamed (protein)
chain 1: ELQLQESGPGLVKPSETLSLTCTVSGGSISSGSYYWDWIRQPPGKGLEWIGNIYKSGSTYYNPSLKSRVTISVDTSKNQFSLKLSSVTAADTAVYYCARERGMHYMDVWGKGTTVTVSS
chain 2: DIQMTQSPSSLSASVGDRVTITCRASQSINSYLNWYQQKPGKAPKLLIYAASSLQSGVPSRFSGSGSGTDFTLTISSLQPEDFATYYCQQQFDPPFTFGGGTKVEIK
B10: unnamed (protein)
chain 1: QVQLVESGGGVVQPGRSLRLSCAASGFTFSSYGMHWVRQAPGKGLEWVAVIWYDGSNEYYADSVKGRFTISRDNSKNTLYLQMNSLRAEDTAVYYCARDRGYTSSWYPDAFDIWGQGTMVTVSS
chain 2: QSVLTQPPSVSGAPGQRVTISCTGSSSNTGAGYDVHWYQQVPGTAPKLLIYGSGNRPSGVPDRFSGSKSGTSASLAITGLQAEDEADYYCQSYDSSLSGWVFGGGTRLTVL

Assay: patients with anti-drug antibodies; higher = more immunogenic

Compared with B1, B2 is higher in “patients with anti-drug antibodies” value: 0% for the first, 2.2% for the second.

Compared with B3, B4 is lower in “patients with anti-drug antibodies” value: 35.5% for the first, 12.8% for the second.

Going from B5 to B6, the “patients with anti-drug antibodies” value rises from 0.3% to 25.5%.

Compared with B7, B8 is lower in “patients with anti-drug antibodies” value: 35% for the first, 1.4% for the second.

Compared with B9, B10 is higher in “patients with anti-drug antibodies” value: 0% for the first, 2.5% for the second.
